From patent US20120165340

Biological target: FLAG-HA-PTEN, P60484
Sequence (P60484 whole entry): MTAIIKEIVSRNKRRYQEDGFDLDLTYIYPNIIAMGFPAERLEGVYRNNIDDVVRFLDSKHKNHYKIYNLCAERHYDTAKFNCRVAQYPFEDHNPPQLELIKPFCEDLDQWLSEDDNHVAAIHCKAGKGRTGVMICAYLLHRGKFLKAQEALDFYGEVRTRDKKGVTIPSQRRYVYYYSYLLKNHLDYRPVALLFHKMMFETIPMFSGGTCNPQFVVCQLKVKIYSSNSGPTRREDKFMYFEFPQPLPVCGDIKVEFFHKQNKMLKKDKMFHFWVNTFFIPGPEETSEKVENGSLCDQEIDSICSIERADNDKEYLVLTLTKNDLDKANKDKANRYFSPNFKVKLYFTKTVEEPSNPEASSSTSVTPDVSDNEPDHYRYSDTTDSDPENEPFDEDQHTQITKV

B1: Lyn (protein)
chain: GCIKSKGKDSLSDDGVDLKTQPVRNTERTIYVRDPTSNKQQRPVPESQLLPGQRFQTKDPEEQGDIVVALYPYDGIHPDDLSFKKGEKMKVLEEHGEWWKAKSLLTKKEGFIPSNYVAKLNTLETEEWFFKDITRKDAERQLLAPGNSAGAFLIRESETLKGSFSLSVRDFDPVHGDVIKHYKIRSLDNGGYYISPRITFPCISDMIKHYQKQADGLCRRLEKACISPKPQKPWDKDAWEIPRESIKLVKRLGAGQFGEVWMGYYNNSTKVAVKTLKPGTMSVQAFLEEANLMKTLQHDKLVRLYAVVTREEPIYIITEYMAKGSLLDFLKSDEGGKVLLPKLIDFSAQIAEGMAYIERKNYIHRDLRAANVLVSESLMCKIADFGLARVIEDNEYTAREGAKFPIKWTAPEAINFGCFTIKSDVWSFGILLYEIVTYGKIPYPGRTNADVMTALSQGYRMPRVENCPDELYDIMKMCWKEKAEERPTFDYLQSVLDDFYTATEGQYQQQP
phosphorylation of PTEN on Y240 (Western blot with anti-pY240): Upon co-expression of the Lyn cDNA with PTEN in HEK 293 cells, we observed a robust phosphorylation of PTEN on Y240 | phosphorylation of Y240 of PTEN (Western blot, FIG. 15): the phosphorylation of Y240 is much greater in the presence of lyn than when src is expressed with PTEN
